Here are results for 167 variants from the RNAGym collection of RNA variant scans (doi:10.7554/elife.80360).

B1: HDV Ribozyme (parent)
chain: GGCCGGCAUGGUCCCAGCCUCCUCGCUGGCGCCGGCUGGGCAACAUUCCGAGGGGACCGUCCCCUCGGUAAUGGCGAAUGGGACCCA

Variants of B1 are the subject of this series. The series is described as follows: self-cleavage, relative activity (ratio to wild type); higher = more cleavage; co-transcriptional.
For U9G U79C, the self-cleavage was determined as 0.748.

Consider U9G U79G, for which the self-cleavage was 0.923. The value for G10C C33G was 0.145; that for G10C C33U was 0.696; that for G10U C30U was 0.137. On to G10C C14A, for which the self-cleavage is 0.237. Regarding G10C A78G, the self-cleavage was found to be 0.399. With G10U C15U, the self-cleavage stood at 0.445. G10U C15A: the self-cleavage was found to be 0.222. Turning to G10U C15G, the self-cleavage amounted to 0.0773. Take G10C G50A: the self-cleavage amounted to 0.997.

Take G10C G50U: the self-cleavage came out at 0.956.

G10A A56U: the self-cleavage was 0.845. The value for G10A A70U was 0.533. The value for G10U A51U was 0.767; that for G10U A51C was 1.09. As to G10U A51G, the self-cleavage came out at 0.707. In the case of G10A C14U, the self-cleavage was 0.59. Regarding G10C C15G, the self-cleavage was 0.0723. Turning to G10C C18G, the self-cleavage stood at 0.0594. As for G10A U20A, the self-cleavage was found to be 0.0831. Consider G10A A77G, for which the self-cleavage was 0.53. As for G10C A43U, the self-cleavage was 0.415. Take G10C A43C: the self-cleavage was 0.219.

As to G10C A43G, the self-cleavage was found to be 0.317. Consider G10A G38A, for which the self-cleavage came to 0.0607. Turning to G10A G38C, the self-cleavage turned out to be 0.0692. The value for G10U C14G was 0.166.

On to G10U C14A, for which the self-cleavage is 0. The value for G10C G82A was 0.314; that for G10C G82C was 0.0875.

As to G10U C21A, the self-cleavage worked out at 0.0332. With G10U C21G, the self-cleavage came out at 0. The value for G10U C21U was 0.0532; that for G10C A87U was 0.984; that for G10C G81U was 0.196. The value for G10C G81C was 0.214; that for G10A C48G was 0.671. Take G10A C48A: the self-cleavage was 0.739. On to G10C G76A, for which the self-cleavage turned out to be 1.2.

Take G10C C24G: the self-cleavage is 0. As to G10C C41G, the self-cleavage was 0.437.

With G10C C41U, the self-cleavage was 0.692.

Consider G10C C41A, for which the self-cleavage is 0.767. G10A U46C: the self-cleavage was 0.397. In the case of G10A U46A, the self-cleavage was 0.506. The value for G10A G35U was 0.499; that for G10A G35C was 0.1.

As for G10A G35A, the self-cleavage is 0.281. On to G10C C61A, for which the self-cleavage came out at 0.734. Consider G10C C61U, for which the self-cleavage is 0.578. Consider G10U C49A, for which the self-cleavage came out at 0.554. On to G10U C49U, for which the self-cleavage stood at 0.955. For the variant G10C C36A, the self-cleavage is 0.0627.

As to G10C C36U, the self-cleavage came out at 0.554.

Consider G10C C36G, for which the self-cleavage is 0.0831. Consider G10A G55U, for which the self-cleavage amounted to 0.698. With G10A G55A, the self-cleavage stood at 0.831. Consider G10C U27A, for which the self-cleavage stood at 0.939. Regarding G10C U27G, the self-cleavage is 0.798. For G10A C13G, the self-cleavage worked out at 0.104. For the variant G10C G80A, the self-cleavage was determined as 0.166. G10U C41G: the self-cleavage was 0.619. Regarding G10A G80C, the self-cleavage was 0.131. Turning to G10A G80U, the self-cleavage was found to be 0.145. The value for G10A G80A was 0.11. U9G G74U: the self-cleavage came to 0.415. As for G10A C66A, the self-cleavage amounted to 0.82. In the case of G10A C66U, the self-cleavage was found to be 0.853.

For the variant U9G U60A, the self-cleavage was 0.831.

Regarding U9G U60C, the self-cleavage amounted to 0.748. The value for U9G G67U was 1.25. For the variant G10A C22A, the self-cleavage turned out to be 0.0528. With G10A C22G, the self-cleavage was found to be 0.0171.

Regarding G10A C22U, the self-cleavage is 0.157.

On to G10C C21G, for which the self-cleavage was found to be 0.032. With G10C C21U, the self-cleavage is 0.0256. The value for G10C C21A was 0.0723; that for U9G G55U was 1.05. As to U9G G55C, the self-cleavage turned out to be 0.665. Take G10A G73C: the self-cleavage was 0.19. In the case of G10A G11C, the self-cleavage is 0.256.

Regarding G10A G11U, the self-cleavage stood at 0.095. G10C A71U: the self-cleavage was 0.767.

On to G10C A71C, for which the self-cleavage worked out at 0.802.

Turning to G10C A71G, the self-cleavage amounted to 0.906. The value for G10C G38C was 0.0941. Take G10C G38U: the self-cleavage was 0.132. On to G10C G38A, for which the self-cleavage amounted to 0.0692. For G10C C62G, the self-cleavage came to 0.719. Consider U9G G76A, for which the self-cleavage came out at 1.23.

Turning to U9G G76C, the self-cleavage is 1.14. For U9G G76U, the self-cleavage stood at 1.13. As for G10U A43U, the self-cleavage was found to be 0.284.

For the variant G10U A43C, the self-cleavage is 0.115. For G10U A43G, the self-cleavage amounted to 0.0604. Consider G10C C19U, for which the self-cleavage was found to be 0.0264. In the case of G10C C19G, the self-cleavage came out at 0.0811. The value for G10C C19A was 0.0563; that for G10A was 0.779; that for G10C was 0.935.

For the variant G10U, the self-cleavage turned out to be 0.776.

On to G10C C32U, for which the self-cleavage stood at 0.855. As to G10C C32A, the self-cleavage is 0.185. On to G10C G73C, for which the self-cleavage was determined as 0.277. On to G10C C13G, for which the self-cleavage turned out to be 0.0723. As to G10C C13A, the self-cleavage was determined as 0. Turning to G10C C84U, the self-cleavage stood at 0.604. The value for G10A C58G was 0.939; that for G10A C32U was 0.652; that for G10A C32A was 0.153. Consider G10A C32G, for which the self-cleavage worked out at 0.0966. As for G10A C84U, the self-cleavage worked out at 0.54.

With G10C U72C, the self-cleavage stood at 0.289.

Take G10C C85G: the self-cleavage came to 0.76. As to G10A U47C, the self-cleavage worked out at 0.554.

G10A U47A: the self-cleavage worked out at 0.665. Regarding G10A C26U, the self-cleavage came out at 0.874. With G10C G59C, the self-cleavage stood at 0.785.

On to G10C G59A, for which the self-cleavage came out at 0.895.

With G10A C19G, the self-cleavage is 0.111.

In the case of G10A C19A, the self-cleavage stood at 0.0489. On to G10C G67U, for which the self-cleavage was 0.782. Consider U9G U65A, for which the self-cleavage is 1.27.

As for U9G U65C, the self-cleavage worked out at 1.17. The value for G10A U79C was 0.0882. In the case of G10A U79A, the self-cleavage came out at 0.302.

As to G10U C26G, the self-cleavage is 0.677. Consider G10U C26U, for which the self-cleavage was 1.13.

G10U C33G: the self-cleavage is 0.0511.

Turning to G10A C64U, the self-cleavage worked out at 0.661. On to G10C C58G, for which the self-cleavage amounted to 0.917. The value for G10A A87U was 0.779. The value for G10A U65C was 0.769.

With G10U A77U, the self-cleavage amounted to 0.174.

In the case of G10U A77G, the self-cleavage is 0.424. Take G10A G52C: the self-cleavage amounted to 0.812. Take G10A G52U: the self-cleavage turned out to be 0.838. G10C U60G: the self-cleavage is 0.95. For the variant G10C U60C, the self-cleavage stood at 0.8.

With G10U C18U, the self-cleavage is 0.12. Regarding G10U C18G, the self-cleavage is 0.111. The value for G10A C33A was 0.111.

On to G10A C33G, for which the self-cleavage is 0.0767. Regarding G10A C33U, the self-cleavage is 0.554. On to U9G U20A, for which the self-cleavage was determined as 0.

Take G10C A45G: the self-cleavage turned out to be 0.791. In the case of G10A A45G, the self-cleavage is 0.598. The value for G10A A45C was 0.219; that for G10A A45U was 0.534.

For the variant G10C U46A, the self-cleavage amounted to 0.525. Consider G10C U46G, for which the self-cleavage is 0.346. The value for G10C U46C was 0.475; that for G10C C66G was 0.646.

As to G10C C66A, the self-cleavage came to 0.848.

In the case of G10C C66U, the self-cleavage was determined as 0.862. Take G10U C36G: the self-cleavage was found to be 0.0615. Take G10U C36U: the self-cleavage stood at 0.472. The value for G10A G39U was 0.293; that for G10U C61G was 0.635; that for G10U C61A was 0.665.

On to G10C C57A, for which the self-cleavage was 1.06. With G10A C62A, the self-cleavage is 0.673. For the variant G10A C62U, the self-cleavage stood at 0.898. Consider G10C A77C, for which the self-cleavage amounted to 0.208. For the variant G10C A77U, the self-cleavage came to 0.0554.

Take G10U C44U: the self-cleavage was determined as 0.459.
